Measurements published in patent US7211422B2, “Polypeptide having α-isomaltosylglucosaccharide synthase activity” (Kabushiki Kaisha Hayashibara Seibutsu Kagaku Kenkyujo, priority 2001, dated 2007).

Tests used:
[1] = Isoelectric point by isoelectrophoresis (2% ampholine gel); type: physicochemical; settings: gel containing 2% (w/v) ampholine
Excerpt: Purified specimens of the polypeptide having α-isomaltosylglucosaccharide-forming enzyme activity from Bacillus globisporus C11 obtained by the method in Experiment 1-3, Bacillus globisporus N75 obtained by the method in Experiment 2–3, and Arthrobacter globiformis A19 obtained by the method in Experiment 3-3 were subjected to isoelectrophoresis using a gel containing 2% (w/v) ampholine commercialized by Amersham Biosciences K. K., Tokyo, Japan (old name, Amersham Pharmacia Biotech), and then measured pHs of protein bands and gel to determine their isoelectric points.

[2] = Thermal stability and pH stability (residual enzyme activity); type: physicochemical; settings: 20 mM Glycine-NaOH buffer pH 8.0, 60 minutes
Procedure: The thermal stability of the polypeptide having α-isomaltosylglucosaccharide-forming enzyme activity was determined by incubating the testing polypeptide solution in 20 mM acetate buffer, pH6.0 (in the case of the polypeptide from a strain A19, 20 m M Glycine-NaOH buffer, pH 8.0) at prescribed temperatures for 60 minutes in the presence or absence of 1 mM Ca^2+, cooling with water the resulting polypeptide solutions, and assaying the residual enzyme activity of each solution. The pH stability of the polypeptide having α-isomaltosylglucosaccharide-forming enzyme activity was determined by keeping the testing polypeptide solutions in 50 mM buffer having prescribed pHs at 4° C. for 24 hours, adjusting the pH of each solution to 6.0 (in the case of the polypeptide from a strain A19, pH 8.0), and assaying the residual enzyme activity of each solution. […] The thermal stability of the polypeptide having α-isomaltosylglucosaccharide-forming enzyme activity from a strain C11 was up to about 40° C. (in the absence of Ca^2+) and about 45° C. (in the presence of Ca^2+), and pH stability of about 5.0 to about 10.0. The thermal stability of the polypeptide having α-isomaltosylglucosaccharide-forming enzyme activity from a strain N75 was up to about 45° C. (in the absence of Ca^2+) and about 50° C. (in the presence of Ca^2+), and pH stability of about 5.0 to about 9.0. The thermal stability of the polypeptide having α-isomaltosylglucosaccharide-forming enzyme activity from a strain A19 was up to about 55° C. (in the absence of Ca^2+) and about 60° C. (in the presence of Ca^2+), and pH stability of about 5.0 to about 9.0.

[3] = Effect of temperature and pH on α-isomaltosylglucosaccharide-forming enzyme activity; type: biochemical; settings: for Optimum temperature: pH 8.4 for 60 minutes
Procedure: The two types of enzymatic activities described above were measured as following. The activity of α-isomaltosylglucosaccharide-forming enzyme was measured by the following assay: A substrate solution was prepared by dissolving maltotriose in 100 mM acetate buffer (pH 6.0) to give a concentration of 2% (w/v). A reaction mixture was prepared by mixing 0.5 ml of the substrate solution and 0.5 ml of an enzyme solution, and incubated at 35° C. for 60 minutes. After stopping the reaction by boiling for 10 minutes, the amount of maltose formed in the reaction mixture was determined by high-performance liquid chromatography (HPLC). One unit of α-isomaltosylglucosaccharide-forming activity was defined as the amount of the enzyme that forms one μmole of maltose per minute under the above conditions. HPLC was carried out using “SHODEX KS-801 column”, Showa Denko K. K., Tokyo, Japan, at a column temperature of 60° C. and a flow rate of 0.5 ml/minutes of water, and using “RI-8012”, a differential refractometer commercialized by Tosoh Corporation, Tokyo, Japan.
The effect of temperature and pH on the α-isomaltosylglucosaccharide-forming enzyme activity was examined in accordance with the assay for the α-isomaltosylglucosaccharide-forming enzyme activity under various temperature and pH conditions. The effect of temperature was conducted in the presence or absence of 1 mM Ca^2+. […] The optimum temperature of the polypeptide having α-isomaltosylglucosaccharide-forming enzyme activity from a strain C11 was about 45° C. (in the absence of Ca^2+) and about 50° C. (in the presence of Ca^2+) when incubated at pH 6.0 for 60 minutes, and the optimum pH was about 6.0 when incubated at 35° C. for 60 minutes. The optimum temperature of the polypeptide having α-isomaltosylglucosaccharide-forming enzyme activity from a strain N75 was about 50° C. (in the absence of Ca^2+) and about 55° C. (in the presence of Ca^2+) when incubated at pH 6.0 for 60 minutes, and the optimum pH was about 6.0 when incubated at 35° C. for 60 minutes. The optimum temperature of the polypeptide having α-isomaltosylglucosaccharide-forming enzyme activity from a strain A19 was about 60° C. (in the absence of Ca^2+) and about 65° C. (in the presence of Ca^2+) when incubated at pH 8.4 for 60 min, and the optimum pH was about 8.4 when incubated at 35° C. for 60 minutes.

[4] = Test on reducing-power formation; type: biochemical; settings: 1% (w/v) maltotetraose, 0.25 unit/g substrate, 35° C., pH 6.0 (pH 8.4 for A19)
Procedure: The following test was carried out to study whether the polypeptide having α-isomaltosylglucosaccharide-forming enzyme activity had the ability of forming reducing-power or not. To a 1% (w/v) aqueous solution of maltotetraose as a substrate was added 0.25 unit/g substrate, d.s.b., of either of purified polypeptide specimen of α-isomaltosylglucosaccharide-forming enzyme from Bacillus globisporus C11 obtained by the method in Experiment 1-3, Bacillus globisporus N75 obtained by the method in Experiment2-3, or Arthrobacter globiformis A19 obtained by the method in Experiment 3-3, and incubated at 35° C. and at pH 6.0, except that pH 8.4 was used for the enzyme from Arthrobacter globiformis A19. During the reaction, a portion of each reaction mixture was sampled at prescribed time intervals and measured for reducing power after keeping at 100° C. for 10 minutes to stop the enzymatic reaction. Before and after the enzymatic reaction, the reducing sugar content and total sugar content were respectively quantified by the Somogyi-Nelson method and anthrone-sulfuric acid method. The percentage of forming reducing power was calculated by the following equation: Percentage of forming reducing power (%)=(AR/AT−BR/BT)×100 Equation: • AR: Reducing sugar content after enzymatic reaction. • AT: Total sugar content after enzymatic reaction. • BR: Reducing sugar content before enzymatic reaction. • BT: Total sugar content before enzymatic reaction.

B1: Enzyme of Strain A19: purified polypeptide having α-isomaltosylglucosaccharide-forming enzyme activity from Arthrobacter globiformis A19 (Experiment 3-3); contains SEQ ID NO: 3 (protein)
chain: APLGVQRAQFQSGSSYLVVEVLDDDLVHFELAGGGTAPGTGSPLFTTPQVAKHDYAGPDVFTQTGSVLQTAAMRIEVDPADLCVTATDITRTPNLVLHEACPADLGQAWKGLNITRSAMENAYGLGQQFFTGGSADGDWVGRTRTPGGTYGNAMVFDPENGPVGNTQIPVLFAVGDDNANYGLFVDQLYKQEWNLTGDPWTVRMWGDQVRWYLMSGDDLPDLRHDYMELTGTPPVPPKKAFGLWVSEFGYDNWSEVDNTIAGLRSADFPVDGAMLDVQWFGGVTADSDDTRMGTLDWDTSRFPDPAGKIADLAEDGVGIIPIEESYVGRNLPEHARMAADGYLVRSGCATCPPVYLTGNPWWGKGGMIDWTQPEAGAVWHDEQRQHLVDEGVLGHWLDLGEPEMYDPNDWTAGVIPGKHAHADYHNAYNLLWAQSIADGYADNGVQKRPFMLTRAAAAGIQRHGAGMWSADIGSTMKALGSQQNAQMHMSMSGIDYYGSDIGGFRREMADGDVNELYTQWFADSAWFDTPLRPHTDNLCNCLETSPDSIGDVASNRENLVRRYELAPYYYSLAHRAHQFGEPLAPPLVYYYQNDDHVREMGHQKMLGRDLLIAIVAGEGERERDVYLPAGEWIDIHTNERIQSTGQWIDNVPLWRDGVFTLPAYARAGAIIPKAFVDASTKDITGKREDAAVRNELIATVYADDVASDFTLYEDDGATTAYADGAVRTTQISQSLTNGVATVTVGAASGTYSGAPSTRPTVVELVTDGTQASTVSLGSVPLTEHANKAAFDAASSGWYNAGGGLVVAKAASSSVNTAKTFSFTLGEESVWATFSCENATTTFGQSVYVVGNVPQLGNWSPADAVKLEPSAYPTWTGVVRNLPPSSTVEWKCIKRQEAGLPNTADAWEPGGNNILSTPPSGSAGITTGAF
modifications: Arthrobacter globiformis A19
- Isoelectric point [1]: about 4.3±0.5
- Thermal stability ([2]; in the absence of Ca2+): up to 55 °C
- Thermal stability ([2]; in the presence of 1 mM Ca2+): ≤ 60 °C
- Optimum temperature ([3]; in the absence of Ca2+): about 60 °C
- Optimum temperature ([3]; in the presence of 1 mM Ca2+): about 65 °C
- Optimum pH ([3]; incubated at 35° C. for 60 minutes): about 8.4
- Percentage of forming reducing power ([4]; reaction time 0 hour): 0.0%
- Percentage of forming reducing power ([4]; reaction time 1 hour): 0.0%
- Percentage of forming reducing power ([4]; reaction time 2 hours): 0.1%
- Percentage of forming reducing power ([4]; reaction time 4 hours): 0.0%
- Percentage of forming reducing power ([4]; reaction time 8 hours): 0.1%
